Measured values published in PMC4541722.

What was measured:
[1] = substrate: Nc1ccn([C@@H]2O[C@H](CO)[C@@H](O)C2(F)F)c(=O)n1; assay: HPLC deamination assay, non-linear regression; format: biochemical, Homo sapiens; conditions: PBS, 37 °C, 10 min, 11 nM enzyme
[2] = substrate: Nc1ccn([C@H]2C[C@H](O)[C@@H](CO)O2)c(=O)n1; assay: HPLC deamination assay, non-linear regression; format: biochemical, Homo sapiens; conditions: PBS, 37 °C, 10 min, 11 nM enzyme

B1: CDAHuman (Homo sapiens) (protein)
chain: MAQKRPACTLKPECVQQLLVCSQEAKKSAYCPYSHFPVGAALLTQEGRIFKGCNIENACYPLGICAERTAIQKAVSEGYKDFRAIAIASDMQDDFISPCGACRQVMREFGTNWPVYMTKPDGTYIVMTVQELLPSSFGPEDLQKTQ
[1]
  Km: 3080 ± 598 µM
  kcat: 14 ± 0.91 s⁻¹
  kcat/Km: 4000 M⁻¹ s⁻¹
[2]
  Km: 373 ± 138 µM
  kcat: 7.8 ± 0.64 s⁻¹
  kcat/Km: 21000 M⁻¹ s⁻¹
